Key:
[1] = target: T1, human BTLA-human Fc (human, UniProt Q7Z6A9 31-151, limits assumed); test: blocking ELISA: BTLA-human Fc binding to coated human HVEM-ratIgG2a
T1 construct: not shown: human Fc

[2] = target: T2, cynomolgus BTLA expressed on HEK-293 cells (cynomolgus, UniProt A0A2K5W7M7 31-289); test: flow cytometry (MFI) on HEK 293 cells expressing BTLA
T2 construct: whole, on cells; also called Cyno BTLA

[3] = target: T3, human BTLA expressed on HEK-293 cells (human, UniProt Q7Z6A9 31-289); test: as above
T3 construct: whole, on cells

[4] = target: T4, cynoBTLA-human Fc (cynomolgus, UniProt A0A2K5W7M7 31-151); test: blocking ELISA: cynoBTLA-human Fc binding to coated human HVEM-ratIgG2a
T4 construct: not shown: human Fc

[5] = target: T5, cynomolgus BTLA (analyte in Bio-Layer Interferometry) (cynomolgus, UniProt A0A2K5W7M7 31-151); test: Bio-Layer Interferometry (Octet), antibody captured by anti-human-Fc, BTLA in solution, 1:1 model
T5 construct: also called Cyno BTLA

[6] = target: recombinant human BTLA (human, UniProt Q7Z6A9 31-151, limits assumed); test: as above
[7] = target: T6, human BTLA(ECD)-HIS (human, UniProt Q7Z6A9 31-157); test: ELISA, BTLA(ECD)-HIS coated, chemiluminescence (RLU)
T6 construct: extracellular domain; not shown: HIS tag

[8] = target: T7, cynomolgus BTLA(ECD)-HIS (cynomolgus, UniProt A0A2K5W7M7 31-157); test: as above
T7 construct: extracellular domain; also called Cyno BTLA; not shown: HIS tag
T7 sequence (A0A2K5W7M7 entry or part of it): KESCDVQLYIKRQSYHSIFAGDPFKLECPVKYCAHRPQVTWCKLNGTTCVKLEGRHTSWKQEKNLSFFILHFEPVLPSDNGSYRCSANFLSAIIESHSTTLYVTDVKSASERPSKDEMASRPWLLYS

T2 sequence (A0A2K5W7M7 entry or part of it): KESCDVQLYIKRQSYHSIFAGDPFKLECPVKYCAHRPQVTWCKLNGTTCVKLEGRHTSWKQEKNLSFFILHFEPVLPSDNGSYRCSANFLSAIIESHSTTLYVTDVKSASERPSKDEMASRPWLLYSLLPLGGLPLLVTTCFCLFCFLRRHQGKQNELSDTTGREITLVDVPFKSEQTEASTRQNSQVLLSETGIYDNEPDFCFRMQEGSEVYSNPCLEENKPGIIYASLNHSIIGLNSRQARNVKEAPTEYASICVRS
T4 sequence (A0A2K5W7M7 entry or part of it): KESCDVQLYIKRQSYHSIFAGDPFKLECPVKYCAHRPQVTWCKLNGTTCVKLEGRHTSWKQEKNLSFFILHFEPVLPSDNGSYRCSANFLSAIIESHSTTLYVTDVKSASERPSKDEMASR

B1: anti-BTLA antibody 15-C19A (antibody, V domains shown)
VH: QVQLQESGPGLVKPSETLSLTCTVSGGSISSYYWSWIRQPPGKGLEWIGYISYSGSTNYNPSLKSRVTISADTSKNQFSLKLSSVTAADTAVYYCARDFYYGMDVWGQGTTVTVSS
VL: AIQLTQSPSSLSASVGDRVTITCRASQGISSALAWYQQKPGKAPKLLIYDASSLESGVPSRFSGSGSGTDFTLTISSLQPEDFATYYCHQFDYYPTFGGGTKVEIK
IC50 [1]: 3.5 nM
EC50 [2]: 4.4 nM
EC50 [3]: 5.5 nM
IC50 [4]: 2.4 nM
Kd [5]: 0.1 nM
Kd [6]: 144 nM
EC50 [7]: 0.8 nM
EC50 [8]: 1.4 nM

— US20230340123A1 (published 2023)
